Columns and labels:
[1] = target: CytERM-EGFP (not stated | Aequorea victoria) (UniProt P00180)
[2] = target: CytERM-TagRFP (UniProt P00180)

Substance | OSER assay: average structure area, U2OS cells [1] | OSER assay: ratio of structure MFI to nuclear envelope MFI, U2OS cells [2]
CytERM-EGFP (from UniProt P00180 1-29) | 8.7 μm^2 | 
CytERM-TagRFP (from UniProt P00180 1-29) |  | 3.9
